Experimental data as given in IntAct's records for PubMed 9499404.

B1: Cell division control protein 53 (Saccharomyces cerevisiae), Q12018 (parent)
chain: MSETLPRSDDLEATWNFIEPGINQILGNEKNQASTSKRVYKILSPTMYMEVYTAIYNYCVNKSRSSGHFSTDSRTGQSTILVGSEIYEKLKNYLKNYILNFKQSNSETFLQFYVKRWKRFTIGAIFLNHAFDYMNRYWVQKERSDGKRHIFDVNTLCLMTWKEVMFDPSKDVLINELLDQVTLGREGQIIQRSNISTAIKSLVALGIDPQDLKKLNLNVYIQVFEKPFLKKTQEYYTQYTNDYLEKHSVTEYIFEAHEIIKREEKAMTIYWDDHTKKPLSMALNKVLITDHIEKLENEFVVLLDARDIEKITSLYALIRRDFTLIPRMASVFENYVKKTGENEISSLLAMHKHNIMKNENANPKKLALMTAHSLSPKDYIKKLLEVHDIFSKIFNESFPDDIPLAKALDNACGAFININEFALPAGSPKSATSKTSEMLAKYSDILLKKATKPEVASDMSDEDIITIFKYLTDKDAFETHYRRLFAKRLIHGTSTSAEDEENIIQRLQAANSMEYTGKITKMFQDIRLSKILEDDFAVALKNEPDYSKAKYPDLQPFVLAENMWPFSYQEVEFKLPKELVPSHEKLKESYSQKHNGRILKWLWPLCRGELKADIGKPGRMPFNFTVTLFQMAILLLYNDADVLTLENIQEGTSLTIQHIAAAMVPFIKFKLIQQVPPGLDALVKPETQFKLSRPYKALKTNINFASGVKNDILQSLSGGGHDNHGNKLGNKRLTEDERIEKELNTERQIFLEACIVRIMKAKRNLPHTTLVNECIAQSHQRFNAKVSMVKRAIDSLIQKGYLQRGDDGESYAYLA
partner: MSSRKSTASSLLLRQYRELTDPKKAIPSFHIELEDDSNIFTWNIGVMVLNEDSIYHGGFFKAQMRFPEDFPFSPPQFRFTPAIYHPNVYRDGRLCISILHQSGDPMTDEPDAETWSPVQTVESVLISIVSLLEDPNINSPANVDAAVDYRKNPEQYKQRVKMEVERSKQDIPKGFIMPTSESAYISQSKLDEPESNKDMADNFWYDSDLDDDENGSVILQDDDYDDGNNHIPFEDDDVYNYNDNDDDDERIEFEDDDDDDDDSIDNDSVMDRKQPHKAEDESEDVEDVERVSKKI

Variants of: B1
Conditions: with ubc3_yeast CDC34, P14682

Row | effect of a mutation on the interaction | Variant
1 | disrupting interaction | R488C
